What was measured:
[1] = biological target: T1, purified recombinant YspE1, full length (Yersinia pestis, UniProt A0A3N4BII9 1-626); assay: SPR; Biacore T200; […] (0–20 μM) […] (20 mM HEPES pH 7.4, 150 mM NaCl, 3.4 mM EDTA, 0.005% P20); 25 °C; conditions: both partners purified
T1 sequence: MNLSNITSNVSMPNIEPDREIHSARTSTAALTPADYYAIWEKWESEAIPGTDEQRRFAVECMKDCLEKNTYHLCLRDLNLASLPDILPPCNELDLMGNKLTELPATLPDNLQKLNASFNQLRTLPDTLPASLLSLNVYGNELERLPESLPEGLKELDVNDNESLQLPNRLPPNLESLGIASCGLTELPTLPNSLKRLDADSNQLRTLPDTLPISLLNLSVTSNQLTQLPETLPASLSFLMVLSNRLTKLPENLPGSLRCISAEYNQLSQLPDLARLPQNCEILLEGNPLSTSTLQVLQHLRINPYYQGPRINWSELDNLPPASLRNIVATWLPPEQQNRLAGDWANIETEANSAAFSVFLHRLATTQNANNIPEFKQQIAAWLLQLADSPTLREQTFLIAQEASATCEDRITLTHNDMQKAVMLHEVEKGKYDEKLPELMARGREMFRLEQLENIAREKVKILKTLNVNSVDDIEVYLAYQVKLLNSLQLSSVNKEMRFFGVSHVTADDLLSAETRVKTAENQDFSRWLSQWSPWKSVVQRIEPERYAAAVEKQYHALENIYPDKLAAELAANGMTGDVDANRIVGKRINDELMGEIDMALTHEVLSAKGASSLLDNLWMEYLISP

[2] = biological target: T2, purified recombinant YspE2, full length (Yersinia pestis, UniProt A0AAP0VE47 1-605); assay: as above; conditions: both partners purified
T2 sequence: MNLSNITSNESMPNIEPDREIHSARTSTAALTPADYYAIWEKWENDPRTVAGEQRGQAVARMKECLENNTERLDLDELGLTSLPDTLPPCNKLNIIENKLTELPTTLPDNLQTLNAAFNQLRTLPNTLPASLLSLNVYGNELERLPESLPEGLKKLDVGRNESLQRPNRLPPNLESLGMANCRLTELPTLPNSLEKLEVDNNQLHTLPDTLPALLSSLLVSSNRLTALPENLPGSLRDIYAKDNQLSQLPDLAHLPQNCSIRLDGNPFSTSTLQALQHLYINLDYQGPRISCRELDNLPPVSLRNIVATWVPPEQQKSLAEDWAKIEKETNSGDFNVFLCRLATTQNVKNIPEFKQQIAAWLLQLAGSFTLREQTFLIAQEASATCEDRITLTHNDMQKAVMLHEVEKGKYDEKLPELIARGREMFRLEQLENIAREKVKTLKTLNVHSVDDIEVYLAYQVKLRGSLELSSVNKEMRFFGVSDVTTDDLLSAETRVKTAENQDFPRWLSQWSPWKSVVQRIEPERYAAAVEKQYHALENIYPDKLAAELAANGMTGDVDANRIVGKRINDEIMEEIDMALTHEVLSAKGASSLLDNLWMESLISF

B1: purified recombinant human guanylate-binding protein 1 (hGBP1) (natural protein, UniProt P32455 1-592, looked up)
chain: MASEIHMTGPMCLIENTNGRLMANPEALKILSAITQPMVVVAIVGLYRTGKSYLMNKLAGKKKGFSLGSTVQSHTKGIWMWCVPHPKKPGHILVLLDTEGLGDVEKGDNQNDSWIFALAVLLSSTFVYNSIGTINQQAMDQLYYVTELTHRIRSKSSPDENENEVEDSADFVSFFPDFVWTLRDFSLDLEADGQPLTPDEYLTYSLKLKKGTSQKDETFNLPRLCIRKFFPKKKCFVFDRPVHRRKLAQLEKLQDEELDPEFVQQVADFCSYIFSNSKTKTLSGGIQVNGPRLESLVLTYVNAISSGDLPCMENAVLALAQIENSAAVQKAIAHYEQQMGQKVQLPTETLQELLDLHRDSEREAIEVFIRSSFKDVDHLFQKELAAQLEKKRDDFCKQNQEASSDRCSALLQVIFSPLEEEVKAGIYSKPGGYRLFVQKLQDLKKKYYEEPRKGIQAEEILQTYLKSKESMTDAILQTDQTLTEKEKEIEVERVKAESAQASAKMLQEMQRKNEQMMEQKERSYQEHLKQLTEKMENDRVQLLKEQERTLALKLQEQEQLLKEGFQKESRIMKNEIQDLQTKMRRRKACTIS
notes: also called pSUMO-hGBP1
- Kd [1]: 370 nM
- Kd [2]: 1500 nM

Reference: article PMC9352726 (Nature Communications, 2022)
